From patent publication US20130230533A1 (Regeneron, published 2013)
Positions count from the first letter of the chain named. Names may count otherwise.

T1: human CD48 (on primary human peripheral blood mononuclear cells) (human, UniProt P09326 27-220)
T1 sequence: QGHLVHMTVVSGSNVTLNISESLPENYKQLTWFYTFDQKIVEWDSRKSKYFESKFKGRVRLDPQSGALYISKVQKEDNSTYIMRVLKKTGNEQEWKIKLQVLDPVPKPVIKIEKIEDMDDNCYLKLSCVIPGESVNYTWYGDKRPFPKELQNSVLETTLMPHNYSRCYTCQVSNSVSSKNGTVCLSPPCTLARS

T2: monomeric monkey CD48 expressed with a tag consisting of 2 myc and one 6-His epitopes (monkey)
T2 construct: also called mfCD48-mmH; Monomeric monkey CD48-mmH
T2 chain: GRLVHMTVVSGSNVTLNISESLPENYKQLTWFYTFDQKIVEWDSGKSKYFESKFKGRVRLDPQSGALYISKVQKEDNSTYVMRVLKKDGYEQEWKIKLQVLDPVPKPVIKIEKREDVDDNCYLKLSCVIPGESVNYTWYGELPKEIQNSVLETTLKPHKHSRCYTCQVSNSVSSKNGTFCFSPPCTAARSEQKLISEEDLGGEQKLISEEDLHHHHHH

T3: biotinylated dimeric human CD48 protein expressed as a fusion with mouse IgG2a Fc (human, biotinylated)
T3 construct: also called bio-hCD48-mFc; Dimeric human CD48-mFc
T3 chain: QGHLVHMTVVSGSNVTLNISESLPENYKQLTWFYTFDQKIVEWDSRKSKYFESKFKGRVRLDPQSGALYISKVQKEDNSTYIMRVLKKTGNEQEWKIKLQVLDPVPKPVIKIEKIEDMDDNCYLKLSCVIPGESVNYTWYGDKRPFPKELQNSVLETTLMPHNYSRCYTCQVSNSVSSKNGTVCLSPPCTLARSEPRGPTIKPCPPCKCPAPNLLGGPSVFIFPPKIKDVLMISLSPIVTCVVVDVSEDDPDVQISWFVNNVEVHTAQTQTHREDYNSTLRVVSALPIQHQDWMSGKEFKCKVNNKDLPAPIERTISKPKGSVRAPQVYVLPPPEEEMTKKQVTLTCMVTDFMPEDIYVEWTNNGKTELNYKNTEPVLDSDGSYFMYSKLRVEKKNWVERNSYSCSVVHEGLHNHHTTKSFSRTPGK

B1: H4H1789Pa (antibody, V domains shown)
VH: EVQLLESGGGLVHPGGSLRLSCAASGFTFGGYAMSWVRQAPGKGLEWVSLISGSGGSTYYADSVKGRFTIFRDNSKNTLYLQMISLRAEDSAVYYCAKYSNYDYFDPWGQGTLVTVSS
VL: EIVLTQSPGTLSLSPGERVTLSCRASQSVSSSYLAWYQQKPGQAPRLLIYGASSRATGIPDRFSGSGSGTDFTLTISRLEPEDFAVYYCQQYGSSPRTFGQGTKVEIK
notes: Human IgG4 Fc (H4H)
B2: H4H1772P (antibody, human IgG4, V domains shown)
VH: EVQLVESGGGLVQPGGSLRLSCAASGFTFSSYWMSWVRQAPGKGLEWVANIMRDGSEKYYVDSVKGRFTISRDNAKNSLYLQMNSLRGEDTAVYYCARERGFYTNYGNWFDPWGQGTLVTVSS
VL: DIVMTQSPLSLTVTPGESASISCRSSQSLLHSYGYNSLDWYLQKPGQSPQFLIYLVSNRASGVPDRFSGSGSGTDFTLKISRVEAEDVGVYYCMQVLQTPYTFGQGTKLEIK
notes: Human IgG4 Fc (H4H)
B3: H4H1775P (antibody, human IgG4, V domains shown)
VH: QVQLVESGGGVVQPGRSLRLSCAASGFTFSNYGMHWVRQAPGKGLEWVAVIWYDESGKHYADSVKGRFTISRDNSQNTLYLQMTSLRAEDTAVYYCARDRWTYSHYFEYWGQGTLVTVSS
VL: DIQMTQSPSSVSASVGDRVTITCRASQDISSWVAWYQQKPGKAPKLLIYAASSLQSGVPSRFSGSGSGTDFTLTISSLQPEDFATYYCQQANSFPRTFGQGTKVEIK
notes: Human IgG4 Fc (H4H)
B4: H4H1781P (antibody, human IgG4, V domains shown)
VH: B3 VH with E55D, G57N, H59N, Q76K, T84N, A88V, Y106F
VL: B3 VL with D28G, V33L, K45N, S63G, T72S, S77G
notes: Human IgG4 Fc (H4H)
B5: H4H1778P (antibody, human IgG4, V domains shown)
VH: B3 VH with G57S, H59Y, A61T
VL: B3 VL with D28G
notes: Human IgG4 Fc (H4H)
B6: H2M1712N (antibody, mouse IgG2, V domains shown)
VH: QIQLVQSGAEMKRPGTSVKVSCKASGYTFSSYGINWVRQAPGQGLEWMGWISAYNGDTNYAQKLQGRVTMTTDTSTTTAYMEVRSLRSDDTAVYYCARFLTGTKDLYYGMDVWGQGTTVTVSS
VL: DIQMTQSPSSLSASVGDRVTITCQASQDISNFLNWYQQKPGKAPDLLINDASILETGVPSRFSGSGSGTDFTLTINSLQPEDIATYYCQQYDNLPLTFGGGTKVEIK
notes: Human variable domains, mouse IgG2 Fc (H2M)
B7: H2M1709N (antibody, mouse IgG2, V domains shown)
VH: QVQLVQSGAEVKKPGASVKVSCKVSGYTLTELSIHWVRQAPGKGLEWMGGFDPEDGETIYAQKFQGRVNMTEDTSTDTAYMELSSLRSDDTTVYFCASLLPYFDYWGQGTLVTVSS
VL: EIVLTQSPGTLSLSPGERATLSCRASQSVSSSYLAWYQQKPGQAPRLLIYGASSRATGIPDRFSGSGSGTDFTLSISRLEPEDFAVYFCQQYGSSMYTFGQGTKLEIK
notes: as for B6

Columns and labels:
[1] = target: T1, human CD48 (on primary human peripheral …); assay: cell-based or functional assay
[2] = target: T1, human CD48 (on primary human peripheral …); assay: cell-based or functional assay; remark: listed apart in the source
[3] = target: T1, human CD48 (on primary human peripheral …); assay: cell-based or functional assay; remark: listed apart in the source
[4] = target: T1, human CD48 (on primary human peripheral …); assay: cell-based or functional assay; remark: listed apart in the source
[5] = target: T2, monomeric monkey CD48 expressed with a …; assay: competition ELISA; blocks mfCD48-mmH binding to coated h2B4-mFc
Experimental: (§1) The ability of human anti-CD48 monoclonal antibodies to block human CD48 and monkey CD48 binding to the human cognate ligand, human 2B4, was measured using a competition sandwich ELISA (Table 8). Constant amounts of biotinylated dimeric human CD48 protein expressed as a fusion with mouse IgG2a Fc (“bio-hCD48-mFc” [SEQ ID NO: 387]) or monomeric monkey CD48 expressed with a tag consisting of 2 myc and one 6-His epitopes (“mfCD48-mmH” [SEQ ID NO: 386]) were separately titrated with varying amounts of antibodies. These antibody-protein complexes were incubated (1 hr, 25° C.) before being transferred to microtiter plates coated with a dimeric construct expressing the human 2B4 receptor fused to a either human IgG1 (h2B4-hFc [R&D Systems, Inc., Minneapolis, Minn., Cat. No. 1039-2B]) or mouse IgG2a Fc (h2B4-mFc [SEQ ID NO: 389). After a 1 hr at 25° C. the wells were washed and bound human CD48 was detected with streptavidin conjugated with horse-radish peroxidase (HRP), and monkey CD48 was detected with an HRP conjugated anti-myc polyclonal antibody. The ELISA was developed with a TMB solution to produce a colorimetric reaction and quenched with sulfuric acid before reading absorbance at 450 nm on a Victor X5 plate reader. Sigmoidal dose response curves were fit to the data using Prism™ software. […] (Tables 8 and 9, NB=no binding observed)

[6] = target: T3, biotinylated dimeric human CD48 protein …; assay: competition ELISA; blocks bio-hCD48-mFc binding to coated h2B4-mFc
Experimental: as §1

[7] = target: T1, human CD48 (on primary human peripheral …); assay: cell-based or functional assay; remark: listed apart in the source
[8] = target: T2, monomeric monkey CD48 expressed with a …; assay: competition ELISA; blocks mfCD48-mmH binding to coated h2B4-hFc
Experimental: as §1

[9] = target: T3, biotinylated dimeric human CD48 protein …; assay: competition ELISA; blocks bio-hCD48-mFc binding to coated h2B4-hFc
Experimental: as §1

Row | Binder | Inhibition of IFN-gamma Release IC50; Donor 6 [1] [Molar] | Inhibition of IFN-gamma Release IC50; Donor 7 [1] [Molar] | Inhibition of IFN-gamma Release IC50; Donor 10 [2] [Molar] | % Blockade of IFNγ release, MLR; D2 [3] [%] | % Blockade of IFNγ release, MLR; D3 [3] [%] | % Blockade of IFNγ release, MLR; D4 [3] [%] | % Blockade of IFNγ release, MLR; D5 [3] [%] | % Blockade of IFNγ release, MLR; D6 [3] [%] | % Blockade of IFNγ release, MLR; D7 [3] [%] | % Blockade of IFNγ release, MLR; D8 [3] [%] | % Blockade of IFNγ release, MLR; D9 [3] [%] | IC50 [5] [nM] | IC50 [6] [nM] | other results
1 | B1 | 1.2e-11 | 1.8e-11 | 1.3e-11 | 66 | 88 | 36 | 89 | 82 | 75 | 65 | 66 | 0.038 | 0.053 | Inhibition of IFN-gamma Release IC50; Donor 8 [2]: 3.7e-11 Molar; Inhibition of IFN-gamma Release IC50; Donor 9 [2]: 1.6e-11 Molar; Inhibition of IFN-gamma Release IC50; Donor 11 [2]: 1.3e-11 Molar; % Blockade of IFNγ release, MLR; D1 [3]: 65%; IC50 of IFNγ release, MLR; D1 [4]: ~0.0014 nM; IC50 of IFNγ release, MLR; D2 [4]: ~0.0093 nM; IC50 of IFNγ release, MLR; D4 [4]: 0.23 nM; IC50 of IFNγ release, MLR; D5 [4]: ~0.09 nM; IC50 of IFNγ release, MLR; D6 [4]: 0.0028 nM; IC50 of IFNγ release, MLR; D8 [4]: 0.029 nM; IC50 of IFNγ release, MLR; D9 [4]: 0.18 nM; IC50 of IFNγ release, MLR; D10 [4]: ~0.05 nM; IC50 of IFNγ release, MLR; D11 [4]: ~0.092 nM; IC50 of IFNγ release, MLR; D12 [4]: ~0.3 nM; IC50 of IFNγ release, MLR; D13 [4]: ~0.096 nM; IC50 of IFNγ release, MLR; D14 [4]: 0.2 nM; IC50 of IFNγ release, MLR; D15 [4]: ~0.0027 nM; IC50 of IFNγ release, MLR; D16 [4]: ~0.012 nM
2 | B2 | 2e-12 | 2.2e-11 | 1.4e-12 | 65 | 62 | 39 | 62 | 63 | 58 | 25 | 59 | 0.0044 | 0.014 | Inhibition of IFN-gamma Release IC50; Donor 11 [2]: 8.6e-11 Molar
3 | B3 | – | 5.1e-12 | 2e-11 | 77 | 87 | 37 | 70 | 72 | 69 | 22 | 60 | 0.043 | 0.044 | Inhibition of IFN-gamma Release IC50; Donor 8 [2]: 3.1e-12 Molar; Inhibition of IFN-gamma Release IC50; Donor 9 [2]: 2.3e-12 Molar; % Blockade of IFNγ release, MLR; D1 [3]: 42%
4 | B4 | 3.6e-11 | 1.5e-11 | – | – | – | – | – | – | – | – | – | 0.0081 | 0.018 | –
5 | B5 | 9.8e-12 | – | – | – | – | – | – | – | – | – | – | 0.0084 | 0.056 | –
6 | B6 | – | – | – | – | – | – | – | – | – | – | – | – | – | Inhibition of IFN-gamma Release IC50; Donor 1 [7]: 2e-11 Molar; Inhibition of IFN-gamma Release IC50; Donor 2 [7]: 2.8e-11 Molar; Inhibition of IFN-gamma Release IC50; Donor 3 [7]: 7.2e-11 Molar; Inhibition of IFN-gamma Release IC50; Donor 4 [7]: 4.8e-11 Molar; Inhibition of IFN-gamma Release IC50; Donor 5 [7]: 1.1e-11 Molar; IC50 [8]: 0.017 nM; IC50 [9]: 0.014 nM
7 | B7 | – | – | – | – | – | – | – | – | – | – | – | – | – | Inhibition of IFN-gamma Release IC50; Donor 1 [7]: 4.8e-11 Molar; Inhibition of IFN-gamma Release IC50; Donor 2 [7]: 5.7e-11 Molar; Inhibition of IFN-gamma Release IC50; Donor 3 [7]: 1.2e-10 Molar; Inhibition of IFN-gamma Release IC50; Donor 4 [7]: 1.1e-10 Molar; Inhibition of IFN-gamma Release IC50; Donor 5 [7]: 3.2e-11 Molar; IC50 [8]: 0.12 nM; IC50 [9]: 0.045 nM
